{"source": "paper PMC3064781", "key": {"scNep1 (Emg1) [1]": {"molecular_target": "T1, scNep1 (Emg1) (Saccharomyces cerevisiae, UniProt Q06287 1-252)", "assay": "X-ray crystallography"}, "scNep1 (Emg1) [2]": {"molecular_target": "T1, scNep1 (Emg1)", "assay": "1:1 molar mix"}}}
{"binder": "GGGCUUCAACGCCC (structured_RNA)", "note": "[14-base Nep1 RNA]", "values": [{"measurement": "binding result", "setting": "scNep1 (Emg1) [1]", "value": "binds"}, {"measurement": "binding result", "setting": "scNep1 (Emg1) [2]", "value": "binds"}]}
